How the values were obtained:
[1] = biological target: recombinant human collagen Type I (purified product of TT080417-1-8 strain)
[2] = biological target: T1, recombinant human collagen Type III (purified product of TT061226-1-3 strain)
T1 chain: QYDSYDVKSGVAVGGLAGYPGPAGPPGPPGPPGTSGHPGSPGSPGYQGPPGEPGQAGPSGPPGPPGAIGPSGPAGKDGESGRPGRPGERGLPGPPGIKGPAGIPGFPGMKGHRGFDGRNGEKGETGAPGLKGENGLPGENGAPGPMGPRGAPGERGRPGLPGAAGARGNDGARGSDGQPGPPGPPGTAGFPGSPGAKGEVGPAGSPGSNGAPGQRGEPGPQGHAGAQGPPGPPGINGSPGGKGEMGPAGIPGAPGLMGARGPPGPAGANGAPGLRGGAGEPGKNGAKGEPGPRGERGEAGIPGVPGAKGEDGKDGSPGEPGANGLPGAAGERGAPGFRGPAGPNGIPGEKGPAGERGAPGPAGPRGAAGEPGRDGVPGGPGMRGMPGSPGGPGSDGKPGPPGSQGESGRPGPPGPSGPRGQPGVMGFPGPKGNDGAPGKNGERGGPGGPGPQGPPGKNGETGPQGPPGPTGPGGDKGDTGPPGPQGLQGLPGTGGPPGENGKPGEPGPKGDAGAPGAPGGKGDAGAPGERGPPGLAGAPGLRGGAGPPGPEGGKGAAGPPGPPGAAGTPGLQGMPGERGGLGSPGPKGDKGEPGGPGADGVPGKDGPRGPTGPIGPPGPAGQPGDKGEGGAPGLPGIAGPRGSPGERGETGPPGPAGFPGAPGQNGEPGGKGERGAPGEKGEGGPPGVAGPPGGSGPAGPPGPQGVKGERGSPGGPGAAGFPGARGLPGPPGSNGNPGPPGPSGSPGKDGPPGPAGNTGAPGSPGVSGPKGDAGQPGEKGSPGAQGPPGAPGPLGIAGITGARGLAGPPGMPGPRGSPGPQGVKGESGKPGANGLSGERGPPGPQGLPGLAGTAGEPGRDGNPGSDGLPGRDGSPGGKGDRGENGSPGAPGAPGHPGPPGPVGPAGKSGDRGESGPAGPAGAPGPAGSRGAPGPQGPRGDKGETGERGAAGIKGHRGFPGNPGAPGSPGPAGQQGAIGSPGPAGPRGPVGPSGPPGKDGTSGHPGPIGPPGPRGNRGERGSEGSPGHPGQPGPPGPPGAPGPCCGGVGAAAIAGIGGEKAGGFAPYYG

Sequence of recombinant human collagen Type I (purified product of TT080417-1-8 strain) (chain, as listed by the source, chain 1 of 2): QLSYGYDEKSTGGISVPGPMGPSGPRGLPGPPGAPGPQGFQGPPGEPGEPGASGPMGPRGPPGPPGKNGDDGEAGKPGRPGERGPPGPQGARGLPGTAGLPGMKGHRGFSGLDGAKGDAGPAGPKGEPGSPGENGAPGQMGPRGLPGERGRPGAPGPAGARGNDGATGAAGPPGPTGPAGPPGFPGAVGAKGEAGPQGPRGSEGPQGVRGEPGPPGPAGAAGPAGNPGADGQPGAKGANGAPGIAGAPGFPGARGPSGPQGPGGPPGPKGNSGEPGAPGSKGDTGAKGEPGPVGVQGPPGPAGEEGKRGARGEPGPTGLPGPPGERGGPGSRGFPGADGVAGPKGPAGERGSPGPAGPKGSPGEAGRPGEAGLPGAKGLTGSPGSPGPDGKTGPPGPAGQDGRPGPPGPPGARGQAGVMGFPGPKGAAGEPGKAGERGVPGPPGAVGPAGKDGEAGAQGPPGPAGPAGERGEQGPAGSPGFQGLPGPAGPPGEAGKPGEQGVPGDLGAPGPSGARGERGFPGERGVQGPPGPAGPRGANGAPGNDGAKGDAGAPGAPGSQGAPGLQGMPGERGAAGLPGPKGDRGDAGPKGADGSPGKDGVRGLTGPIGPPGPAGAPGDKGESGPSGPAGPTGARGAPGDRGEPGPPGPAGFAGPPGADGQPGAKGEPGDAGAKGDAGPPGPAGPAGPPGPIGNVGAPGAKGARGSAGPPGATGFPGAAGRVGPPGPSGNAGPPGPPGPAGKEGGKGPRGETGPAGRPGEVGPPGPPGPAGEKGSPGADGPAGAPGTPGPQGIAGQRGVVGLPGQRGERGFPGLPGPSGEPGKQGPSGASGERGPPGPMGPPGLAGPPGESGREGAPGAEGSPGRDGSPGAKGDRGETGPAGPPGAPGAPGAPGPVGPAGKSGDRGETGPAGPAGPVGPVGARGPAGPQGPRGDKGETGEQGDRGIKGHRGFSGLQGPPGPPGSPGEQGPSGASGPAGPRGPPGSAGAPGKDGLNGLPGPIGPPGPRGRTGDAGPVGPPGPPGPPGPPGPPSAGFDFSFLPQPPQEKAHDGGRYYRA
Sequence of recombinant human collagen Type I (purified product of TT080417-1-8 strain) (chain, as listed by the source, chain 2 of 2): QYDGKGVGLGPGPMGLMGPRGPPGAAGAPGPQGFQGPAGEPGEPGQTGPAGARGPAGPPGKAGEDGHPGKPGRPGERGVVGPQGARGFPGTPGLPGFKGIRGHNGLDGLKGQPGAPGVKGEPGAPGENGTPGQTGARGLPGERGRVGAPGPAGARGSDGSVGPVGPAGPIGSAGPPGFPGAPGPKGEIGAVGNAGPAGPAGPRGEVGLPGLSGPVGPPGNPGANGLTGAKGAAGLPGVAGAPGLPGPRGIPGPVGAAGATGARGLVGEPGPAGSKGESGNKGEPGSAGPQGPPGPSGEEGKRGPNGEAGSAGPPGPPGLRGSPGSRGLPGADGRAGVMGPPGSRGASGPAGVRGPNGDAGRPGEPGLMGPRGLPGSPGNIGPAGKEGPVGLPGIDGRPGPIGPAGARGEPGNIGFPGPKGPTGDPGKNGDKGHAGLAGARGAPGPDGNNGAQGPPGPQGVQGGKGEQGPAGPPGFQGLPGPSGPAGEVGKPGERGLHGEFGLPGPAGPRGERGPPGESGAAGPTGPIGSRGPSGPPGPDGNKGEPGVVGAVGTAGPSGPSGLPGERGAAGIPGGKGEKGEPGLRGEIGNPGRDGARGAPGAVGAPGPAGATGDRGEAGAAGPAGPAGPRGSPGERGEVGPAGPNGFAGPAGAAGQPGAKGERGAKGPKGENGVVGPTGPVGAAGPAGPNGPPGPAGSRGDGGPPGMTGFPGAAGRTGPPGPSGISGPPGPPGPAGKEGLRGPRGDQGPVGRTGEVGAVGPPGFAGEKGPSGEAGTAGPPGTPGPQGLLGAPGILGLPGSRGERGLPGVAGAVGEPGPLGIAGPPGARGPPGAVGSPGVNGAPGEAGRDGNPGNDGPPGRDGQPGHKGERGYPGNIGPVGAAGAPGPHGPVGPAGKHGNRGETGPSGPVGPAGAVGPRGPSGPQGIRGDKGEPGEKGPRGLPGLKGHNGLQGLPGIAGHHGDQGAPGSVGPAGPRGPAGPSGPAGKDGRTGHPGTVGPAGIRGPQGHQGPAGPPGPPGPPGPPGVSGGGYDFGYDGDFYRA

B1: lysyl hydroxylase 1 (protein)
chain: KGDAKPEDNLLVLTVATKETEGFRRFKRSAQFFNYKIQALGLGEDWNVEKGTSAGGGQKVRLLKKALEKHADKEDLVILFTDSYDVLFASGPRELLKKFRQSRSQVVFSAEELIYPDRRLETKYPVVSDGKRFLGSGGFIGYAPNLSKLVAEWEGQDSDSDQLFYTKIFLDPEKREQINITLDHRCRIFQNLDGALDEVVLKFEMGHVRARNLAYDTLPVLIHGNGPTKLQLNYLGNYIPRFWTFETGCTVCDEGLRSLKGIGDEALPTVLVGVFIEQPTPFVSLFFQRLLRLHYPQKHMRLFIHNHEQHHKAQVEEFLAQHGSEYQSVKLVGPEVRMANADARNMGADLCRQDRSCTYYFSVDADVALTEPNSLRLLIQQNKNVIAPLMTRHGRLWSNFWGALSADGYYARSEDYVDIVQGRRVGVWNVPYISNIYLIKGSALRGELQSSDLFHHSKLDPDMAFCANIRQQDVFMFLTNRHTLGHLLSLDSYRTTHLHNDLWEVFSNPEDWKEKYIHQNYTKALAGKLVETPCPDVYWFPIFTEVACDELVEEMEHFGQWSLGNNKDNRIQGGYENVPTIDIHMNQIGFEREWHKFLLEYIAPMTEKLYPGYYTRAQFDLAFVVRYKPDEQPSLMPHHDASTFTINIALNRVGVDYEGGGCRFLRYNCSIRAPRKGWTLMHPGRLTHYHEGLPTTRGTRYIAVSFVDP
[1]
  composition ratio of hydroxylated lysine to the total lysine residues (amino acid analysis of purified collagen): a composition ratio of the hydroylated lysine to the total lysine residues was increased up to 50.1%
[2]
  composition ratio of hydroxylated lysine to the total lysine residues (amino acid analysis of purified collagen): a composition ratio of hydroxylated lysine to the total lysine residues was increased up to 36.9%
